“Also recorded” adds a separate entry of the source.

One series deals with rats. The series can be described thus: Platelet count and hematocrit after single Tpo treatment. The class given is in vivo, rat. As to the method: Prior to treatment, platelet counts in untreated rats were 850±96 10^3/ul, and the hematocrit in untreated rats was 43.8±1.8%.
FIG. 13A/B is a plot of additional data (mean±standard deviation, n+6 per group) that evaluated a single dose of Tpo (1.0 μg/kg i.v.) on platelet count and hematocrit. There was no effect.

The test system of a further series is in vitro rat hearts. The series can be described thus: TUNEL assay of apoptosis in isolated rat hearts after global ischemia/reperfusion. As to the method:
Hearts from Sprague Dawley rats perfused continuously with bicarbonate buffer for 245 minutes served as non-ischemic controls (FIG. 5). Hearts aerobically perfused for 35 minutes and subjected to 25 minutes of global ischemia followed by 3 hours reperfusion served as the ischemia-reperfusion control group. Hearts aerobically perfused with buffer for 20 minutes and then perfused with Tpo (1 ng/ml) for 15 minutes before ischemia and reperfusion served as a Tpo-treated group. Each heart at the end of perfusion was snap frozen in liquid nitrogen. Four frozen sections (10 micron thick) from each heart (72 sections total) were processed for TUNEL assay according to the manufacturers protocol (Roche). The slides were examined under fluorescent microscope (400× magnification, excitation 490 nm, and emission 515 nm). Twenty-two random high-power fields from each heart sample were chosen and blindly quantified. TUNEL results are presented as % (positive nuclei per field/total nuclei per field×100%).

In series [1] the test system is healthy individuals and those about to receive chemotherapy. The settings on record: human trials, Tpo doses of 1-5 μg/kg; cited from earlier work.
[2] abbreviates: single Tpo 0.05 μg/kg i.v., 14 day follow up.
The mark [3] stands for this setting: single Tpo 1.0 μg/kg i.v., 28 day follow up.

In the case of Thrombopoietin [Tpo], in the series on rats (setting [2]), the Hematocrit entry was “remained unchanged; also recorded: did not result in an increased” and the Platelet count entry is listed as “remained unchanged; also recorded: did not result in an increased”. In addition, in the series with rats (setting [3]), the Hematocrit entry is “no effect” and the Platelet count entry was “no effect”. Besides, the TUNEL-positive cells in the series with in vitro rat hearts (Tpo 1.0 ng/ml 15 min before 25 min global ischemia, 3 hours reperfusion, ischemia control 3.56±0.75%, non-ischemic 1.91±0.54%) was 1.94±0.55%. Besides, the “Apoptosis following ischemia and reperfusion” value in the series with in vitro rat hearts (Tpo 1.0 ng/ml prior to ischemia) is reported as “reduced”. For the same substance, the “Increase of platelet production” value in series [1] is reported as 5-10 times.

Source of the values: patent US8518883B2, “Method of reducing deleterious effects of ischemia by administration of a thrombopoietin receptor ligand” (MCW Research Foundation, Inc., priority 2006, dated 2013).
